9 molecules from patent publication US20230087785A1, “Leucine-Rich Repeat Kinase 2 Allosteric Modulators” (VIB VZW, priority 2020, published 2023) can be followed below.

One series deals with T1, LRRK2(G2019S) (Homo sapiens, UniProt Q5S007, G2019S/M2397T/R50H).
T1 construct: SF tag (FLAG + Twin-Strep); expressed in transfected cells; host or cells: HEK 293T
Nature of the series: In cellulo phospho-Rab / LRRK2 autophosphorylation assay in HEK293T cells. The series is classed as cell-based. The conditions noted are these: HEK 293T cells co-expressing LRRK2(G2019S), Rab29 and Nb-GFP; for influence on LRRK2 kinase activity compared to the controls: Western blot. As for the experimental part:
(FIGS. 2A-2C) LRRK2(G2019S) and its effector Rab29 were overexpressed together with GFP-fused Nbs (“Fluobody”) in HEK293T cells. A negative control, where no Nb is overexpressed (“No Nb”) is also included. […] In rows labeled “pLRRK2”, LRRK2 pS1292 levels are determined by Western Blot using a site-specific anti-pLRRK2(pS1292) antibody (Abcam, ab203181) (shown at different times of development). In the rows labeled “pRAB10”, endogenous pT72-Rab10 levels are determined by Western Blot using the MJFF/Abcam antibody MJF-R21 (Abcam, ab230261) (shown at different times of development). The three lower rows contain controls of LRRK2 (rat anti-LRRK2, 24D8), Fluobody (rat anti-GFP) and Rab10 (rabbit anti-Rab10) expression levels. (FIG. 2D) Based on the results of panels (FIGS. 2A-2C) the Nbs can be divided into 4 functional groups, with group 1: Nbs that inhibit both LRRK2 autophosphorylation and Rab10 phosphorylation in cells; group 2: Nbs that inhibit only Rab10 phosphorylation; group 3: Nbs that activate LRRK2 kinase activity; group 4: Nbs that have no consistent/clear effect on LRRK2 kinase activity.
To assess the influence of the Nbs on LRRK2 kinase activity we monitored two physiologically and disease relevant activities of LRRK2: phosphorylation of the endogenous substrate Rab10 at position T72 and LRRK2 autophosphorylation at position S1292 [25-30]. […] In our cellular assay we thus co-expressed LRRK2(G2019S), Rab29 and the different Nb-GFP fusions in HEK 293T cells (FIG. 2a-c).
HEK 293T cells were cultured in DMEM (supplemented with 10% Fetal Bovine Serum, […] L-Glutamine and 0.5% Pen/Strep). For the assay, the cells were seeded onto six-well plates and transfected at a confluency of 50-70% with the individual Nb-GFP expression constructs, SF-tagged LRRK2(G2019S) and FLAG-HA Rab29 using a self-made polyethylenimine (PEI)-based transfection reagent. After 48 hrs cells were lysed in lysis buffer [30 mM Tris-HCL (pH7.4), 150 mM NaCl, 0.5% Nonident-P40, complete protease inhibitor cocktail, phosphatase inhibitor cocktail II & III (all Sigma)]. Lysates were cleared by centrifugation at 10,000×g and adjusted to a protein concentration of 1 μg/μl in 1× Laemmli Buffer. Samples were subsequently subjected to SDS PAGE and Western Blot analysis to determine LRRK2 pS1292 and Rab10 T72 phosphorylation levels, as described below. Total LRRK2 and Rab10 levels were determined as a reference.
For western blot analysis, protein samples were separated by SDS-PAGE using NuPAGE 10% Bis-Tris gels (Invitrogen) and transferred onto PVDF membranes (Thermo Fisher). To allow simultaneous probing for LRRK2 on the one hand and Rab and the Nb-GFP fusions on the other hand, membranes were cut horizontally at the 140 kDa MW marker band. After blocking non-specific binding sites with 5% non-fat dry milk in TBST (1 h, RT) (25 mM Tris, pH 7.4, 150 mM NaCl, 0.1% Tween-20), membranes were incubated overnight at 4° C. with primary antibodies at dilutions specified below. Phospho-specific antibodies were diluted in TBST/5% BSA (Roth GmbH). Non-phospho-specific antibodies were diluted in TBST/5% non-fat dry milk powder (BioRad). Phospho-Rab10 levels were determined by the site-specific rabbit monoclonal antibody anti-pRAB10([…]) (Abcam, ab230261) and LRRK2 autophosphorylation was determined by the site-specific rabbit monoclonal antibody anti-pLRRK2(pS1292) (Abcam, ab203181), both at a dilution of 1:2,000. Total LRRK2 levels were determined by the in-house rat monoclonal antibody anti-pan-LRRK2 (clone 24D8; 1:10,000). Total Rab10 levels were determined by the rabbit monoclonal antibody anti-RAB10/ERP13424 (Abcam, ab181367) at a dilution of 1:5,000. Nb-GFP fusion proteins were detected using the rat monoclonal antibody anti-GFP (clone 3H9, ChromoTec) at a dilution of 1:2,000. For detection, goat anti-rat IgG or anti-rabbit IgG HRP-coupled secondary antibodies (Jackson ImmunoResearch) were used at a dilution of 1:15,000 in TBST/5% non-fat dry milk powder. […]
On the technique in general: Immunoblotting shows a protein as a band on a membrane.

The target in series [1] is T2, LRRK2 RocCOR domain construct (human, UniProt Q5S007 1334-1840).
T2 construct: A second construct (residues 1293-1840, N-terminal His6-MBP) was used in certain screening experiments; not shown: N-terminal Twin-Strep-tag; C-terminal His10-tag
T2 sequence: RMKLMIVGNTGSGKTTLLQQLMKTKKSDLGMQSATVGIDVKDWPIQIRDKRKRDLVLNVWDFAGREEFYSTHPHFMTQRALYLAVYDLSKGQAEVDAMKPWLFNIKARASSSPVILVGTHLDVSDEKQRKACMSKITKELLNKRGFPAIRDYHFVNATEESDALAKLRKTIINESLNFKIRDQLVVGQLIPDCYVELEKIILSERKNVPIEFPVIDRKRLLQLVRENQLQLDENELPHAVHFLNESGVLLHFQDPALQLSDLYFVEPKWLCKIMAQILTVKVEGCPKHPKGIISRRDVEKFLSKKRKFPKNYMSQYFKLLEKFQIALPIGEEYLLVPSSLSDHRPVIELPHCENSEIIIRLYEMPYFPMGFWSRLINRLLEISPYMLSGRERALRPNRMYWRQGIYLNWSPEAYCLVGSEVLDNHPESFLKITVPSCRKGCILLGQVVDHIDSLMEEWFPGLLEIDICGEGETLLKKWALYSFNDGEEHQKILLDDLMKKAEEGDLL
Kind of series: ELISA, antigen coated on the plate, purified Nb detected via its EPEA tag. An excerpt: (§1) We recombinantly expressed and purified the RocCOR, Roc, COR-B and kinase-WD40 (K-WD40) domain constructs of LRRK2 (FIG. 7). Subsequently, we performed an ELISA in which all these domain constructs were coated in parallel next to each other in the same ELISA plate, and where we subsequently detected binding of the 42 purified Nbs. […] To enrich in Nbs directed against the Roc domain we specifically included a selection step with either Roc-GTPγS or Roc-GDP.
(An ELISA detects its analyte on a solid surface through an enzyme-linked reagent.)

Series [2] addresses T3, LRRK2 Roc domain construct (human, UniProt Q5S007 1329-1520).
T3 construct: not shown: N-terminal His6-tag of pET-28a
T3 sequence: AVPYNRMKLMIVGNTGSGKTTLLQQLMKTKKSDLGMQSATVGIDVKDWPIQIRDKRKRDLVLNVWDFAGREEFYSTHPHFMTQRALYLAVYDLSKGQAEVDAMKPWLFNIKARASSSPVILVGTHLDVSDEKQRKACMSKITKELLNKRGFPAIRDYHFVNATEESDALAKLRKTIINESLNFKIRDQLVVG
Described as above.
Excerpt: as §1

Series [3] addresses T4, LRRK2 COR-B construct (C-terminal part of the COR domain), His6-MBP tagged (human, UniProt Q5S007 1672-1840).
T4 construct: also called (MBP-)COR-B; not shown: N-terminal His6-MBP-tag of pDEST-566
The description is as above.
Excerpt: as §1

T1 sequence (Q5S007 whole entry R50H/G2019S/M2397T): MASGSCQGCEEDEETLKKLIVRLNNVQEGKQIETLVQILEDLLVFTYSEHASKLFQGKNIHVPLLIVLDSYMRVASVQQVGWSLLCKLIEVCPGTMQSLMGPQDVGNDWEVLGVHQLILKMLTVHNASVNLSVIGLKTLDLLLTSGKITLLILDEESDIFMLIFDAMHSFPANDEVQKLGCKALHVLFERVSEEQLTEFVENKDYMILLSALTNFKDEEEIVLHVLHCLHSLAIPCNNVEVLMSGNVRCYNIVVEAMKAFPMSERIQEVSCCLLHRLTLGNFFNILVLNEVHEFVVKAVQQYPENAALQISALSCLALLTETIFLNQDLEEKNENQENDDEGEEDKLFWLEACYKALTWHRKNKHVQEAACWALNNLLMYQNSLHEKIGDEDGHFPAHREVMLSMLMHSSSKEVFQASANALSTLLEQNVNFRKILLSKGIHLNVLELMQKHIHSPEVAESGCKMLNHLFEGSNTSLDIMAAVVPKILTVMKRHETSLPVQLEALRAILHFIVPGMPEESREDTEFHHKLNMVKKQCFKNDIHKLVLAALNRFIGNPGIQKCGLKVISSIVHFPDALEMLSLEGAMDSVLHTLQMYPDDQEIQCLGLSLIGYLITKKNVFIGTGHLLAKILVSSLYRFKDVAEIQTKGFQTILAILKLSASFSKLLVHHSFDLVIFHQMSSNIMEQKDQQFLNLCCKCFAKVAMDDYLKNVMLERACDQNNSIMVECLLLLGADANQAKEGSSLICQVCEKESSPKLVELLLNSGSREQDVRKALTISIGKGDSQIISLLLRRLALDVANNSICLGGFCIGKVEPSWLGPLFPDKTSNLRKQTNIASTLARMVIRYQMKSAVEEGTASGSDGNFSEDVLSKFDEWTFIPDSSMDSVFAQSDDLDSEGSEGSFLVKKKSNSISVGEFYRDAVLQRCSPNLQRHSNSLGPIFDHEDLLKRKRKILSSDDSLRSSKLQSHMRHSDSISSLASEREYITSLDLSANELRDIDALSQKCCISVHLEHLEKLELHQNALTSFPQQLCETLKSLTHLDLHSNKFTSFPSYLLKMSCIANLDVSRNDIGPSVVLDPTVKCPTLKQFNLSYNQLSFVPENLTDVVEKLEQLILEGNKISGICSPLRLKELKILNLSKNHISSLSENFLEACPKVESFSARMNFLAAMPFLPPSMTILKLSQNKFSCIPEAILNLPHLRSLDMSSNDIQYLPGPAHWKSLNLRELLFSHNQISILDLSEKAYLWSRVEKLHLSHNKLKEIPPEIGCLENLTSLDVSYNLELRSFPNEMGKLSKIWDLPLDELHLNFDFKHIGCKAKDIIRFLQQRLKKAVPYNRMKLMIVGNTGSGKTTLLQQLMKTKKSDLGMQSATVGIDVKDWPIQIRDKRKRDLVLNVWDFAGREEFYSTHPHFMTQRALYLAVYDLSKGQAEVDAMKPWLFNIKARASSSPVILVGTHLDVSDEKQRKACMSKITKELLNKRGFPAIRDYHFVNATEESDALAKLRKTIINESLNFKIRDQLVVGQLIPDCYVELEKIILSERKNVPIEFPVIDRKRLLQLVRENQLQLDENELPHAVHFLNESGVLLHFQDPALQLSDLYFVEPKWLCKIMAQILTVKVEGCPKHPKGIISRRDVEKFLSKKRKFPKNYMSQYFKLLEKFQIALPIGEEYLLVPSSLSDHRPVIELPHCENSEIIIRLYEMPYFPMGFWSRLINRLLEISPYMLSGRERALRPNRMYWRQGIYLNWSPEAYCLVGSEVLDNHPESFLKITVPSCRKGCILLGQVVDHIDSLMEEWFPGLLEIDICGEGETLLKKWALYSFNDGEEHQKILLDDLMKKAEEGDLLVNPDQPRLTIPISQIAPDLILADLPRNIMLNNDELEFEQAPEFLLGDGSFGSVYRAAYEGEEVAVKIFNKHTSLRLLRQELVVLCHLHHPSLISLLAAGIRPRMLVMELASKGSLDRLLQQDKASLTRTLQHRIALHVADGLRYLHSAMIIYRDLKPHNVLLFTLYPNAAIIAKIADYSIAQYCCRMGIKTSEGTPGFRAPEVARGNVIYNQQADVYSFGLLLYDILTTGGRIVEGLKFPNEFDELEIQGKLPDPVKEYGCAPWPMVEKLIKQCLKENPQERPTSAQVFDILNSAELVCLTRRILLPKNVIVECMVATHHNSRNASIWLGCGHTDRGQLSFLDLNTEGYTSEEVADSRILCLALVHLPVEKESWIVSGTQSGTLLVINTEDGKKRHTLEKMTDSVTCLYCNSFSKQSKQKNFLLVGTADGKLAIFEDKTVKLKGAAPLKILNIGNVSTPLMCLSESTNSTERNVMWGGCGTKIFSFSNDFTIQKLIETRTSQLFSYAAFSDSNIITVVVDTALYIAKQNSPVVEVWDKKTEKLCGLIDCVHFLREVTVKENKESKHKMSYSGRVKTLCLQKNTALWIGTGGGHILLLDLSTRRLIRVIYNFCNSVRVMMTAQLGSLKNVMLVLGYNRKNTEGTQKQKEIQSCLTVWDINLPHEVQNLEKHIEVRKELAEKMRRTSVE

B1: Nb10: LRRK2-specific Nanobody, SEQ ID NO: 15 (protein)
VHH: MAQVQLVESGGGLVQPGGSLRLSCAASGSIFSIYAMGWYRQAPGKQRELVAAITSGGDTNYADSVKGRFTISRDNAKNTVYLQMNSLKPEDTAVYYCNADHTPAGTFQTFDYWGQGTQVTVSS
modifications: Nanobody CA13599
As to B1, the “influence on LRRK2 kinase activity compared to the controls” value (from here on “influence … compared to the controls”) in the series with LRRK2(G2019S) is on record as “no influence on LRRK2 kinase activity”.

B2: Nb13: LRRK2-specific Nanobody, SEQ ID NO: 16 (protein)
VHH: MAQVQLVESGGGLVQPGGSLRLSCAASGSGFSIYAMGWARQAPGRQRELVAAITSGGSTNYADSVKGRFTISRDNAKNTVYLQMNSLKPEDTAVYYCNADITVVAGSTYDYWGQGTQVTVSS
modifications: Nanobody CA13602
Turning to B2, the “influence … compared to the controls” value with LRRK2(G2019S) was “no influence on LRRK2 kinase activity”.

B3: Nb3: LRRK2-specific Nanobody, SEQ ID NO: 11 (protein)
VHH: MAQVQLVESGGGLVQPGGSLRLSCAASGSIFRRNAMGWYRQVTGKERELVAGITSGGYTNYRDFVKGRFTISRDNAKNTVYLQMNNLKPEDTAVYYCNLLSEMLQTVWGQGTQVTVSS
modifications: Nanobody CA12614
For the molecule B3, in the series with LRRK2(G2019S), the “LRRK2 autophosphorylation at position S1292” value (shortened to “LRRK2 autophosphorylation”) is on record as “somewhat stronger inhibitory effect towards LRRK2 autophosphorylation” and the “influence … compared to the controls” value is listed as “no influence on LRRK2 kinase activity”.

B4: Nb41: LRRK2-specific Nanobody, SEQ ID NO: 12 (protein)
VHH: MAQVQLVESGGGLVQAGGSLRLSCEASVRTFSFYSMGWFRQAPGKEREFVAAIRWTAGSTSYADIVKGRFTISRDNGKNTVVLQMNSLEPEDTGVYYCAAQRGYLVEAASREYDYWGQGTQVTVSS
modifications: Nanobody CA14136
Regarding B4, in the series with LRRK2(G2019S), the “LRRK2 autophosphorylation” value was “inhibiting S1292 phosphorylation at a lesser extent” and the “influence … compared to the controls” value was “strongly decreased LRRK2 autophosphorylation and/or Rab10 phosphorylation”. The “Rab10 phosphorylation at position T72” value with LRRK2(G2019S) (endogenous Rab10) was “inhibit Rab10 phosphorylation”.

B5: Nb28: LRRK2-specific Nanobody, SEQ ID NO: 18 (protein)
VHH: MAQVQLVESGGGLVQAGGSLRLSCAASGIIFHWYDMDWYRQAPGKQRELVATITTGGRADYADFVKGRFSISRDNAKTTVYLQMNSLKPEDTAVYYCSFQDHVLRRWGQGTQVTVSS
modifications: Nanobody CA13617
For B5, the “influence … compared to the controls” value in the series with LRRK2(G2019S) is given as “significant increase of LRRK2 kinase activity”.

B6: Nb31: LRRK2-specific Nanobody, SEQ ID NO: 13 (protein)
VHH: MAQVQLVESGGGLVQAGGSLRLSCATSGLTFGTYAMAWFRQAAEKEREFVAFISGRGGYRDYADSVKGRLTIFRDNAKNNAKNTVYLQMNNLKPEDTAVYYCAARQGSPVRSKEEYNNWGQGTQVTVSS
modifications: Nanobody CA13620
Consider B6, for which the “influence … compared to the controls” value in the series with LRRK2(G2019S) was “no influence on LRRK2 kinase activity”.

B7: Nb9 (CA13598) (VHH)
VHH: QVQLVESGGGLVQPGGSLRLSCAASGSIFSINAMGWYRQAPGKQRELVAAITSGGRTNYADSVRGRFTISRDHAKNTVYLQMNSLKPEDTAVYYCNAGDWQTMYDYWGQGTQVTVSS
As for B7, the binding result in series [1], in series [2] and in series [3] was “no binding (tested: not given)” each time.

B8: Nb37: LRRK2-specific Nanobody, SEQ ID NO: 14 (protein)
VHH: MAQVQLVESGGGLVQPGGSLRLSCAASGSVFSTNTMAWFRQAPGKQREWVGGITPGGFTNYINSVKGRFTISRDNANNTIYLQMSSLRPEDTAVYYCNTLSRMALWGQGTQVTVSS
modifications: Nanobody CA14131
For B8, in the series with LRRK2(G2019S), the “LRRK2 autophosphorylation” value is reported as “somewhat stronger inhibitory effect towards LRRK2 autophosphorylation” and the “influence … compared to the controls” value is on record as “no influence on LRRK2 kinase activity”.

B9: Nb9: LRRK2-specific Nanobody, SEQ ID NO: 17 (protein)
VHH: MAQVQLVESGGGLVQPGGSLRLSCAASGSIFSINAMGWYRQAPGKQRELVAAITSGGRTNYADSVRGRFTISRDHAKNTVYLQMNSLKPEDTAVYYCNAGDWQTMYDYWGQGTQVTVSS
modifications: Nanobody CA13598
Regarding B9, the “influence … compared to the controls” value in the series with LRRK2(G2019S) is on record as “no influence on LRRK2 kinase activity”.
